Reference: US20240018188A1
[ ]: non-standard residue; d: D form. 2Nal = N[C@@H](Cc1ccc2ccccc2c1)C(=O)O; dNle = CCCC[C@@H](N)C(=O)O; βAla = NCCC(=O)O

B1: Compound 16 (peptide)
peptide: Ac-[dL][dNle][dR][dS][dV][dR][dL][dR][dNle]G[dL][dR][dK][dR][dR][dR][dR][dR]G[2Nal]-NH2
SMILES: CCCC[C@@H](NC(=O)[C@@H](CCCNC(=N)N)NC(=O)[C@@H](CC(C)C)NC(=O)[C@@H](CCCNC(=N)N)NC(=O)[C@H](NC(=O)[C@@H](CO)NC(=O)[C@@H](CCCNC(=N)N)NC(=O)[C@@H](CCCC)NC(=O)[C@@H](CC(C)C)NC(C)=O)C(C)C)C(=O)NCC(=O)N[C@H](CC(C)C)C(=O)N[C@H](CCCNC(=N)N)C(=O)N[C@H](CCCCN)C(=O)N[C@H](CCCNC(=N)N)C(=O)N[C@H](CCCNC(=N)N)C(=O)N[C@H](CCCNC(=N)N)C(=O)N[C@H](CCCNC(=N)N)C(=O)N[C@H](CCCNC(=N)N)C(=O)NCC(=O)N[C@@H](Cc1ccc2ccccc2c1)C(N)=O
B2: Compound 12 (peptide)
peptide: Ac-[dL][dNle][dR]G[dV][dR][dL][dR][dV]G[dL][dR][dK][dR][dR][dR][dR][dR]G[2Nal]-NH2
SMILES: CCCC[C@@H](NC(=O)[C@@H](CC(C)C)NC(C)=O)C(=O)N[C@H](CCCNC(=N)N)C(=O)NCC(=O)N[C@@H](C(=O)N[C@H](CCCNC(=N)N)C(=O)N[C@H](CC(C)C)C(=O)N[C@H](CCCNC(=N)N)C(=O)N[C@@H](C(=O)NCC(=O)N[C@H](CC(C)C)C(=O)N[C@H](CCCNC(=N)N)C(=O)N[C@H](CCCCN)C(=O)N[C@H](CCCNC(=N)N)C(=O)N[C@H](CCCNC(=N)N)C(=O)N[C@H](CCCNC(=N)N)C(=O)N[C@H](CCCNC(=N)N)C(=O)N[C@H](CCCNC(=N)N)C(=O)NCC(=O)N[C@@H](Cc1ccc2ccccc2c1)C(N)=O)C(C)C)C(C)C
B3: Compound 17 (peptide)
peptide: Ac-[dL][dNle][dR][dS][dV][dR][dL][dR][dV][βAla][dL][dR][dK][dR][dR][dR][dR][dR]G[2Nal]-NH2
SMILES: CCCC[C@@H](NC(=O)[C@@H](CC(C)C)NC(C)=O)C(=O)N[C@H](CCCNC(=N)N)C(=O)N[C@H](CO)C(=O)N[C@@H](C(=O)N[C@H](CCCNC(=N)N)C(=O)N[C@H](CC(C)C)C(=O)N[C@H](CCCNC(=N)N)C(=O)N[C@@H](C(=O)NCCC(=O)N[C@H](CC(C)C)C(=O)N[C@H](CCCNC(=N)N)C(=O)N[C@H](CCCCN)C(=O)N[C@H](CCCNC(=N)N)C(=O)N[C@H](CCCNC(=N)N)C(=O)N[C@H](CCCNC(=N)N)C(=O)N[C@H](CCCNC(=N)N)C(=O)N[C@H](CCCNC(=N)N)C(=O)NCC(=O)N[C@@H](Cc1ccc2ccccc2c1)C(N)=O)C(C)C)C(C)C
B4: Compound 14 (peptide)
peptide: Ac-[dL][dNle][dR][dS][dR][dR][dL][dR][dV]G[dL][dR][dK][dR][dR][dR][dR][dR]G[2Nal]-NH2
SMILES: CCCC[C@@H](NC(=O)[C@@H](CC(C)C)NC(C)=O)C(=O)N[C@H](CCCNC(=N)N)C(=O)N[C@H](CO)C(=O)N[C@H](CCCNC(=N)N)C(=O)N[C@H](CCCNC(=N)N)C(=O)N[C@H](CC(C)C)C(=O)N[C@H](CCCNC(=N)N)C(=O)N[C@@H](C(=O)NCC(=O)N[C@H](CC(C)C)C(=O)N[C@H](CCCNC(=N)N)C(=O)N[C@H](CCCCN)C(=O)N[C@H](CCCNC(=N)N)C(=O)N[C@H](CCCNC(=N)N)C(=O)N[C@H](CCCNC(=N)N)C(=O)N[C@H](CCCNC(=N)N)C(=O)N[C@H](CCCNC(=N)N)C(=O)NCC(=O)N[C@@H](Cc1ccc2ccccc2c1)C(N)=O)C(C)C

Biological target: human RAD51 (human) (UniProt Q06609)
Assay: cell-based or functional assay

Chain of human RAD51 (human) (Q06609 2-339 limits assumed): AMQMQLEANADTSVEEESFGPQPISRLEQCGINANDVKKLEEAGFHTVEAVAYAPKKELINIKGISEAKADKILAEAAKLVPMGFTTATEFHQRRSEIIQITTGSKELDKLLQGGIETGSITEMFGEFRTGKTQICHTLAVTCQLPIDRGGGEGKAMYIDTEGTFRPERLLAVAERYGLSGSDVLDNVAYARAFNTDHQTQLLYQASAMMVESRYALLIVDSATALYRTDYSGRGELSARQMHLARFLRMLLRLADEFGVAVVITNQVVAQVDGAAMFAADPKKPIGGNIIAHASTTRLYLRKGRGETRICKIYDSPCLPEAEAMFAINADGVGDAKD

Row | IC50 [µM] | Binder
1 | 43 | B1
2 | 17 | B2
3 | 20 | B3
4 | 3500 | B4
